Tests used:
[1] = system: T1, Synthetic phosphotyrosine peptide Arg-Arg-Leu-Ile-Glu-Asp-Ala-Gle-Tyr-Ala-Ala-Arg-Gly (SEQ ID NO: 3), tyrosine phosphorylated
T1 sequence: RRLIEDAEYAARG

SHP-1 = biological target: T2, SHP-1 (Mus musculus, UniProt P29351); assay: in vitro PTPase assay, GST/SHP-1; format: biochemical
T2 construct: made in house
Protocol: In vitro PTPase activities were measured using the commercial protein tyrosine phosphatase assay kit (Upstate Biotechnology, Inc. (“UBI”)) following established procedure known to one of skill in the art. […] Briefly, 0.01 μg of GST/PTPase fusion proteins was incubated in 50 μl of Tris buffer (10 mM Tris, pH 7.4) containing different concentrations of inhibitors or chemicals (0-1,000 μg/ml) at 22° C. for 10 minutes, followed by addition of 0.2 mM of the phosphotyrosine peptide and incubation at 22° […] 100 μl of Malachite Green solution was added and incubated for 5 minutes, and the absorbance at 660 nm was measured after 5 minutes.
To assess the reversibility of inhibition of SHP-1 by PTPase inhibitors, GST/SHP-1 fusion protein bound on glutathione beads were pre-incubated in cold Tris buffer or Tris buffer containing the PTPase inhibitors at 4° C. for 30 minutes. The beads were then either subjected to in vitro PTPase assays or washed 3 times in Tris buffer then subjected to in vitro PTPase assays.
Briefly, individual PTPases (0.1 μg/reaction) in 50 μL of PTPase buffer (50 mM Tris, pH 7.4) were incubated at 22° C. for 10 minutes or as indicated in the absence or presence of inhibitory compounds. Substrates (0.2 mM phosphotyrosine peptide) were then added and allowed to react at 22° C. for 18 hrs. PTPase activity of individual reactions was measured by adding 100 μL of malachite green solution (UBI) and then quantifying the amounts of free phosphate cleaved by the PTPase from the peptide substrate by spectrometry (OD660 nm). […] Relative PTPase activities were calculated based on the formula: (PTPase activity in the presence of an inhibitory compound/PTPase activity in the absence of the compound)× 100%. To assess the reversibility of PTPase inhibition, GST fusion proteins of the PTPases bound on glutathione beads (Pharmacia) were pre-incubated with cold Tris buffer (50 mM Tris, pH 7.0) or Tris buffer containing the inhibitor at 4° C. for 30 minutes. The beads were then washed three times in cold Tris buffer or not washed prior to subjecting to in vitro PTPase assays.

MKP1 = biological target: T3, MKP1 (Homo sapiens, UniProt P28562); assay: in vitro PTPase assay, GST/MKP1; format: biochemical; settings: levamisole, pentamidine, ketoconazole
T3 construct: a pGEX construct containing the coding region of MKP1 cDNA derived by RT-PCR; made in house; host or cells: DH5a bacteria (E. coli)
T3 sequence (P28562 1-367): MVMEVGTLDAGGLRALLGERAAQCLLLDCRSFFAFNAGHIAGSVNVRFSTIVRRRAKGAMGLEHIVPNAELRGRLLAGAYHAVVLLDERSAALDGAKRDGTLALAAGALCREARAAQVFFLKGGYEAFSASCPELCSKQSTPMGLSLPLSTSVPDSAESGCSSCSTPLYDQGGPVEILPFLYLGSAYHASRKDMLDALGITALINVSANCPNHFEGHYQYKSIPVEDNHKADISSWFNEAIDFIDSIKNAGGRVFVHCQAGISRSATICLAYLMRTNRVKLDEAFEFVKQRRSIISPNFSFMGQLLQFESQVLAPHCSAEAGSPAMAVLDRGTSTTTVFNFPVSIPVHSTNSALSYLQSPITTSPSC
Protocol: In vitro PTPase activities were measured using the commercial protein tyrosine phosphatase assay kit (Upstate Biotechnology, Inc. (“UBI”)) following established procedure known to one of skill in the art. This assay measures the in vitro dephosphorylation of a synthetic phosphotyrosine peptide of the sequence Arg-Arg-Leu-Ile-Glu-Asp-Ala-Gle-T- -yr-Ala-Ala-Arg-Gly, wherein the tyrosine is phosphorylated (SEQ ID NO: 3). Briefly, 0.01 μg of GST/PTPase fusion proteins was incubated in 50 μl of Tris buffer (10 mM Tris, pH 7.4) containing different concentrations of inhibitors or chemicals (0-1,000 μg/ml) at 22° C. for 10 minutes, followed by addition of 0.2 mM of the phosphotyrosine peptide and incubation at 22° C. for 18 hours. 100 μl of Malachite Green solution was added and incubated for 5 minutes, and the absorbance at 660 nm was measured after 5 minutes.
(§1) In vitro PTPase assays were used to determine the effects of levamisole (Sigma), pentamidine (American Pharmaceutical Partners, Inc.), and ketoconazole (Sigma) on recombinant PTPases, following established procedures (Pathak et al., J. Immunol. 167, 3391 (2001); Pathak et al., Leukemia 16, 2285 (2002), Yi et al., J. Immunol. 169, 5978 (2002)) using a synthetic phosphotyrosine peptide or DiFMUP as the substrate as detailed above in section I.A.2.

GSTm8 = assay: in vitro PTPase assay, GSTm8; format: biochemical; settings: 3-4 μg/ml or 10-100 μg/ml
Text: as §1

PRL-3 = biological target: T4, PRL-3 (Homo sapiens, UniProt O75365); assay: in vitro PTPase assay, recombinant PRL-3; format: biochemical; settings: DiFMUP substrate
T4 construct: cDNAs of human PRL-1, PRL-2 and PRL-3 coding region were derived by RT-PCR; made in house; host or cells: DH5a bacteria (E. coli)
Text: Sodium stibogluconate, suramin, sodium orthovanadate and GST fusion protein of SHP-1 have been described previously (Pathak et al., J. Immunol. 167, 3391 (2001)). Meglumine antimonate was obtained from Aventis. cDNAs of human PRL-1, PRL-2 and PRL-3 coding region were derived by RT-PCR from H9 cells (Safai, et al., Lancet 1, 1438 (1984)) and inserted in frame into the pGEX vector. cDNA of PRL-1R86 was generated by recombinant DNA technique using PRL-1 cDNA as template following established procedures (Jiao, et al., Mol. Cell. Biol. 16, 6985 (1996)). GST fusion proteins of the PRL phosphatases were prepared from DH5a bacteria transformed with the pGEX fusion protein constructs as described previously (Yi, et al., Mol. Cell. Biol. 12, 836 (1992)). cDNAs encoding the PRLs tagged at the N-termini with the Flag epitope (Castrucci, et al., J. Virol. 66, 4647 (1992)) were generated via recombinant DNA technique, sequenced to confirm their identities and cloned into the pBabepuro vector (Yang, et al., Blood 91, 3746 (1998)). Anti-Flag monoclonal antibody (M2, Sigma) was purchased from a commercial source. A synthetic phosphotyrosine peptide (Arg-Arg-Leu-Ile-Glu-Asp-Ala-Gle-Tyr-Al- -a-Ala-Arg-Gly (SEQ ID NO: 3), wherein the tyrosine is phosphorylated; UBI) and DiFMUP (6, 8-difluoro-4-methylumbelliferyl phosphate, Molecular Probes) were purchased as substrates for PTPase assays.
In vitro PTPase assays were used to determine the effects of compounds on recombinant PTPases, following established procedures using a synthetic phosphotyrosine peptide or DiFMUP as the substrate (Pathak et al., J. Immunol. 167, 3391 (2001)). Briefly, individual PTPases (0.1 μg/reaction) in 50 μL of PTPase buffer (50 mM Tris, pH 7.4) were incubated at 22° C. for 10 minutes or as indicated in the absence or presence of inhibitory compounds. Substrates (0.2 mM phosphotyrosine peptide) were then added and allowed to react at 22° C. for 18 hrs. PTPase activity of individual reactions was measured by adding 100 μL of malachite green solution (UBI) and then quantifying the amounts of free phosphate cleaved by the PTPase from the peptide substrate by spectrometry (OD660 nm). PTPase assays using DiFMUP as a substrate were conducted following a previously described procedure (Matter, et al., Biochem. Biophys. Res. Comm. 283, 1061 (2001)). Relative PTPase activities were calculated based on the formula: (PTPase activity in the presence of an inhibitory compound/PTPase activity in the absence of the compound)× 100%. To assess the reversibility of PTPase inhibition, GST fusion proteins of the PTPases bound on glutathione beads (Pharmacia) were pre-incubated with cold Tris buffer (50 mM Tris, pH 7.0) or Tris buffer containing the inhibitor at 4° C. for 30 minutes. The beads were then washed three times in cold Tris buffer or not washed prior to subjecting to in vitro PTPase assays.

[2] = biological target: T5, Synthetic phosphotyrosine peptide Arg-Arg-Leu-Ile-Glu-Asp-Ala-Gle-Tyr-Ala-Ala-Arg-Gly (SEQ ID NO: 3), tyrosine phosphorylated (not fully specified)
T5 chain: RRLIEDAEYAARG

T2 sequence (P29351 whole entry): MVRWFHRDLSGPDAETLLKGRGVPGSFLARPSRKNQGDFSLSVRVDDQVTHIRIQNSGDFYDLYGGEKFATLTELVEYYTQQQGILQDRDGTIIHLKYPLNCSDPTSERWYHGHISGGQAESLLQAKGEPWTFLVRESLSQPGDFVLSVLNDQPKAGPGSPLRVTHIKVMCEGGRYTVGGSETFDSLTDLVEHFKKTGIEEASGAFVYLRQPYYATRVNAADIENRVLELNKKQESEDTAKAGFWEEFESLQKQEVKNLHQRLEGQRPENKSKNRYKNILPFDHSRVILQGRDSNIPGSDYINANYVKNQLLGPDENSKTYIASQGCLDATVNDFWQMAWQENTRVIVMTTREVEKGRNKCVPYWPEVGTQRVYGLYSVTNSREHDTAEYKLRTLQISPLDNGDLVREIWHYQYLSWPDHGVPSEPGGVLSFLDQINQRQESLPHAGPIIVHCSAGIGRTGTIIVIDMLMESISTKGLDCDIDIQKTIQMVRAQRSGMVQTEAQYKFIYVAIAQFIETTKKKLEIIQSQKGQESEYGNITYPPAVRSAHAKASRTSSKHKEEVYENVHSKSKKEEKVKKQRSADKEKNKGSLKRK
T4 sequence (O75365 whole entry): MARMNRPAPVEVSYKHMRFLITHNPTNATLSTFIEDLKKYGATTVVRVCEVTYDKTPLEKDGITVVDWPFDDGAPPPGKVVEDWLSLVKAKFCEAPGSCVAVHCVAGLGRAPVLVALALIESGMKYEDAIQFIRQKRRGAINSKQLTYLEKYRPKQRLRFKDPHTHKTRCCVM

In the case of GST fusion protein of SHP-1, the “PTPase activities against the peptide substrate (660 nm absorbance above background)” value (“PTPase activities” below) [1] is reported as 660 nm absorbance approximately 0.6 above background (0.03).

For GST fusion protein of SHP-2, the “PTPase activities” value [1] was 660 nm absorbance approximately 0.6 above background (0.03).

For “GST fusion protein of protein tyrosine phosphatase 1B (PTP1B)”, the “PTPase activities” value [1] was 660 nm absorbance approximately 0.6 above background (0.03).

For c1ccc([C@H]2CN3CCSC3=N2)cc1 [levamisole], the “inhibitory activity against SHP-1” value (SHP-1; 3-4 μg/ml or 10-100 μg/ml) was “no obvious inhibitory activity”, the “inhibition of MKP1” value (MKP1) was “substantial inhibition” and the “inhibitory activity against GSTm8” value (GSTm8) was “no obvious inhibitory activity”.

“GST fusion protein of mitogen-activated protein kinase phosphatase 1 (MKP1)” was tested, and the “PTPase activities” value [1] was 660 nm absorbance approximately 0.6 above background (0.03).

[Na+].[Na+].[Na+].[O]=[V]([O-])([O-])[O-] [sodium orthovanadate] was tested, and the “inhibition of PRL-3 compared with sodium stibogluconate” value (PRL-3) was “less effective”.

With Cc1ccc(C(=O)Nc2ccc(S(=O)(=O)O)c3cc(S(=O)(=O)O)cc(S(=O)(=O)O)c23)cc1NC(=O)c1cccc(NC(=O)Nc2cccc(C(=O)Nc3cc(C(=O)Nc4ccc(S(=O)(=O)O)c5cc(S(=O)(=O)O)cc(S(=O)(=O)O)c45)ccc3C)c2)c1 [Suramin] the “inhibition of SHP-1 compared with sodium stibogluconate” value (SHP-1; comparable conditions) was “less effective”, the “inhibition of GST/SHP-1 after washing (reversibility)” value (SHP-1; pre-incubated 30 min at 4 °C, beads washed 3 times) was “almost completely removed by the washing process” and the “inhibition of PRL-3 compared with sodium stibogluconate” value (PRL-3) was “less effective”.

B1: GST fusion protein of PRL-1R86 (recombinant PRL-1 protein containing R86) (protein)
chain: MARMNRPAPVEVTYKNMRFLITHNPTNATLNKFIEELKKYGVTTIVRVCEATYDTTLVEKEGIHVLDWPFDDGAPPSNQIVDDWLRLVKIKFREEPGCCIAVHCVAGLGRAPVLVALALIEGGMKYEDAVQFIRQKRRGAFNSKQLLYLEKYRPKMRLRFKDSNGHRNNCCIQ
In the case of B1, the “in vitro PTPase activity” value [2] is reported as “showed in vitro PTPase activity similar to that of wild type PRL-1”.

B2: GST fusion protein of PRL-1 (recombinant wild type PRL-1) (protein)
chain: MARMNRPAPVEVTYKNMRFLITHNPTNATLNKFIEELKKYGVTTIVRVCEATYDTTLVEKEGIHVLDWPFDDGAPPSNQIVDDWLSLVKIKFREEPGCCIAVHCVAGLGRAPVLVALALIEGGMKYEDAVQFIRQKRRGAFNSKQLLYLEKYRPKMRLRFKDSNGHRNNCCIQ
For B2, the “in vitro PTPase activity” value [2] was “showed in vitro PTPase activity similar to that of wild type PRL-1”.

B3: Flag-PRL-1 (human PRL-1 tagged at the N-terminus with the Flag epitope) (protein)
chain: MARMNRPAPVEVTYKNMRFLITHNPTNATLNKFIEELKKYGVTTIVRVCEATYDTTLVEKEGIHVLDWPFDDGAPPSNQIVDDWLSLVKIKFREEPGCCIAVHCVAGLGRAPVLVALALIEGGMKYEDAVQFIRQKRRGAFNSKQLLYLEKYRPKMRLRFKDSNGHRNNCCIQ
B3 was tested, and the “PTPase activity of anti-Flag immunocomplexes” value [2] was “a markedly higher PTPase activity (about 23 folds) over that of control transfectants” and the “phosphatase activities of anti-Flag immunocomplexes” value [2] was “showed phosphatase activities well above the background activity of the vector control cells”.

B4: Flag-PRL-1R86 (Flag-tagged PRL-1 R86 mutant) (protein)
chain: MARMNRPAPVEVTYKNMRFLITHNPTNATLNKFIEELKKYGVTTIVRVCEATYDTTLVEKEGIHVLDWPFDDGAPPSNQIVDDWLRLVKIKFREEPGCCIAVHCVAGLGRAPVLVALALIEGGMKYEDAVQFIRQKRRGAFNSKQLLYLEKYRPKMRLRFKDSNGHRNNCCIQ
With B4 the “phosphatase activities of anti-Flag immunocomplexes” value [2] was “showed phosphatase activities well above the background activity of the vector control cells”.
